IntAct's records for PubMed 31515488

B1: WASH complex subunit 3 (Homo sapiens), Q9Y3C0 (parent)
chain: MDEDGLPLMGSGIDLTKVPAIQQKRTVAFLNQFVVHTVQFLNRFSTVCEEKLADLSLRIQQIETTLNILDAKLSSIPGLDDVTVEVSPLNVTSVTNGAHPEATSEQPQQNSTQDSGLQESEVSAENILTVAKDPRYARYLKMVQVGVPVMAIRNKMISEGLDPDLLERPDAPVPDGESEKTVEESSDSESSFSD
B2: Keratin, type II cytoskeletal 6A (Homo sapiens), P02538 (parent)
chain: MASTSTTIRSHSSSRRGFSANSARLPGVSRSGFSSVSVSRSRGSGGLGGACGGAGFGSRSLYGLGGSKRISIGGGSCAISGGYGSRAGGSYGFGGAGSGFGFGGGAGIGFGLGGGAGLAGGFGGPGFPVCPPGGIQEVTVNQSLLTPLNLQIDPTIQRVRAEEREQIKTLNNKFASFIDKVRFLEQQNKVLETKWTLLQEQGTKTVRQNLEPLFEQYINNLRRQLDSIVGERGRLDSELRGMQDLVEDFKNKYEDEINKRTAAENEFVTLKKDVDAAYMNKVELQAKADTLTDEINFLRALYDAELSQMQTHISDTSVVLSMDNNRNLDLDSIIAEVKAQYEEIAQRSRAEAESWYQTKYEELQVTAGRHGDDLRNTKQEIAEINRMIQRLRSEIDHVKKQCANLQAAIADAEQRGEMALKDAKNKLEGLEDALQKAKQDLARLLKEYQELMNVKLALDVEIATYRKLLEGEECRLNGEGVGQVNISVVQSTVSSGYGGASGVGSGLGLGGGSSYSYGSGLGVGGGFSSSSGRAIGGGLSSVGGGSSTIKYTTTSSSSRKSYKH
partner: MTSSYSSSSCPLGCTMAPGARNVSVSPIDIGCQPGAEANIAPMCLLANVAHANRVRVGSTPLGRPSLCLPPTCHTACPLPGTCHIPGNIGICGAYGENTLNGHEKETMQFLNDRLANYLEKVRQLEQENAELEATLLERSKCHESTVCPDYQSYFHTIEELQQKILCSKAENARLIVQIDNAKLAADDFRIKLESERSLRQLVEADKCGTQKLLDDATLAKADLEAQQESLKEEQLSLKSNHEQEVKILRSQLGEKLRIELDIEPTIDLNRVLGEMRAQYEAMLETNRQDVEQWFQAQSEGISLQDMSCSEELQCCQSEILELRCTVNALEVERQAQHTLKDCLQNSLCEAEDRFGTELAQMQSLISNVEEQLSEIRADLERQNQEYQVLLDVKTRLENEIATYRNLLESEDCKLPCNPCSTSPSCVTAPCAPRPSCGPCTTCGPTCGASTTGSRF

Variants of: B1
Settings: with optn_human OPTN
With MDEDGLPLMGSGIDLTKVPAIQQKRTVAFLNQFVVHTVQFLNRLSTVCEEKLADLSLRIQQIETTLNILDAKLSSIPGLDDVTVEVSPLNVTSVTNGAHPEATSEQPQQNSTQDSGLQESEVSAENILTVAKDPRYARYLKMVQVGVPVMAIRNKMISEGLDPDLLERPDAPVPDGESEKTVEESSDSESSFSD [F44L] the “effect of a mutation on the interaction” value was “with no effect”.

Variants of: B1
Settings: with ift20_human IFT20, Q8IY31
ift20_human IFT20, Q8IY31, sequence (Q8IY31 whole entry): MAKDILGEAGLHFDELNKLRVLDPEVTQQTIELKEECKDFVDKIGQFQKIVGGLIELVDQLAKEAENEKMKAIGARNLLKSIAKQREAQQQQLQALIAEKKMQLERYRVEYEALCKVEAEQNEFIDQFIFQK
For MDEDGLPLMGSGIDLTKVPAIQQKRTVAFLNQFVVHTVQFLNRLSTVCEEKLADLSLRIQQIETTLNILDAKLSSIPGLDDVTVEVSPLNVTSVTNGAHPEATSEQPQQNSTQDSGLQESEVSAENILTVAKDPRYARYLKMVQVGVPVMAIRNKMISEGLDPDLLERPDAPVPDGESEKTVEESSDSESSFSD [F44L], the “effect of a mutation on the interaction” value was “with no effect”.

Variants of: B1
Settings: with abi2_human ABI2, Q9NYB9
abi2_human ABI2, Q9NYB9, sequence (Q9NYB9 whole entry): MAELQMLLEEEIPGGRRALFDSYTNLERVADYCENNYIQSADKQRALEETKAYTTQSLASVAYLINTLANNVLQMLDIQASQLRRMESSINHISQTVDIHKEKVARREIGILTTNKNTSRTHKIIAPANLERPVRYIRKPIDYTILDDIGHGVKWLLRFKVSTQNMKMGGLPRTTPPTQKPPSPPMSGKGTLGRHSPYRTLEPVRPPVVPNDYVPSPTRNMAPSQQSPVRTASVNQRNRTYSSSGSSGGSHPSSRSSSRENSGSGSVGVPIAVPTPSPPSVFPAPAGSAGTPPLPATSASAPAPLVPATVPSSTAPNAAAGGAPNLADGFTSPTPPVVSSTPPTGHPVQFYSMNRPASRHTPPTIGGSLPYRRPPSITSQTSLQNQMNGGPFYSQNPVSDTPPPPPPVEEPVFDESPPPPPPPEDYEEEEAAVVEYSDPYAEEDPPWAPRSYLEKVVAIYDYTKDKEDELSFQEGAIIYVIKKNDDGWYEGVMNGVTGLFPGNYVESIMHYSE
In the case of MDEDGLPLMGSGIDLTKVPAIQQKRTVAFLNQFVVHTVQFLNRLSTVCEEKLADLSLRIQQIETTLNILDAKLSSIPGLDDVTVEVSPLNVTSVTNGAHPEATSEQPQQNSTQDSGLQESEVSAENILTVAKDPRYARYLKMVQVGVPVMAIRNKMISEGLDPDLLERPDAPVPDGESEKTVEESSDSESSFSD [F44L], the “effect of a mutation on the interaction” value is reported as “disrupting interaction strength”.

Variants of: B1
Settings: with ndc80_human NDC80, O14777
ndc80_human NDC80, O14777, sequence (O14777 whole entry): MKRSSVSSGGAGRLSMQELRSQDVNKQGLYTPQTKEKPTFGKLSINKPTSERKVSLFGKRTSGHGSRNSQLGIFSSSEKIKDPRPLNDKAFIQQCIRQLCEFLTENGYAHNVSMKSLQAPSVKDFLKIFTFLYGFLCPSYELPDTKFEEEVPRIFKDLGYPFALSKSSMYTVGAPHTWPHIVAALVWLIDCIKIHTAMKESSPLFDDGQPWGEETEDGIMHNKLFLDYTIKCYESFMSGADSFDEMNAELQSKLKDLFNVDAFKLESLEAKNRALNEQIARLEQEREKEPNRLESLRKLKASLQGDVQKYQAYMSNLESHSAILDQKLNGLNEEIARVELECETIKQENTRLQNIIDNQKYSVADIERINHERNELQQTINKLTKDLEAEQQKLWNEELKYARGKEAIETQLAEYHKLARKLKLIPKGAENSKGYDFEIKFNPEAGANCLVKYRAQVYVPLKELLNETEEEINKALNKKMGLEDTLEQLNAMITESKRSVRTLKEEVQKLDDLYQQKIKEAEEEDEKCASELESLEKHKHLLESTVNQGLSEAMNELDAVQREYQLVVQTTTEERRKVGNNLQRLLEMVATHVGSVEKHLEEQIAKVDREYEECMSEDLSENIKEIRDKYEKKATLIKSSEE
For MDEDGLPLMGSGIDLTKVPAIQQKRTVAFLNQFVVHTVQFLNRLSTVCEEKLADLSLRIQQIETTLNILDAKLSSIPGLDDVTVEVSPLNVTSVTNGAHPEATSEQPQQNSTQDSGLQESEVSAENILTVAKDPRYARYLKMVQVGVPVMAIRNKMISEGLDPDLLERPDAPVPDGESEKTVEESSDSESSFSD [F44L], the “effect of a mutation on the interaction” value was “with no effect”.

Variants of: B1
Settings: with pcm1_human PCM1, Q15154
pcm1_human PCM1, Q15154, sequence (Q15154 whole entry): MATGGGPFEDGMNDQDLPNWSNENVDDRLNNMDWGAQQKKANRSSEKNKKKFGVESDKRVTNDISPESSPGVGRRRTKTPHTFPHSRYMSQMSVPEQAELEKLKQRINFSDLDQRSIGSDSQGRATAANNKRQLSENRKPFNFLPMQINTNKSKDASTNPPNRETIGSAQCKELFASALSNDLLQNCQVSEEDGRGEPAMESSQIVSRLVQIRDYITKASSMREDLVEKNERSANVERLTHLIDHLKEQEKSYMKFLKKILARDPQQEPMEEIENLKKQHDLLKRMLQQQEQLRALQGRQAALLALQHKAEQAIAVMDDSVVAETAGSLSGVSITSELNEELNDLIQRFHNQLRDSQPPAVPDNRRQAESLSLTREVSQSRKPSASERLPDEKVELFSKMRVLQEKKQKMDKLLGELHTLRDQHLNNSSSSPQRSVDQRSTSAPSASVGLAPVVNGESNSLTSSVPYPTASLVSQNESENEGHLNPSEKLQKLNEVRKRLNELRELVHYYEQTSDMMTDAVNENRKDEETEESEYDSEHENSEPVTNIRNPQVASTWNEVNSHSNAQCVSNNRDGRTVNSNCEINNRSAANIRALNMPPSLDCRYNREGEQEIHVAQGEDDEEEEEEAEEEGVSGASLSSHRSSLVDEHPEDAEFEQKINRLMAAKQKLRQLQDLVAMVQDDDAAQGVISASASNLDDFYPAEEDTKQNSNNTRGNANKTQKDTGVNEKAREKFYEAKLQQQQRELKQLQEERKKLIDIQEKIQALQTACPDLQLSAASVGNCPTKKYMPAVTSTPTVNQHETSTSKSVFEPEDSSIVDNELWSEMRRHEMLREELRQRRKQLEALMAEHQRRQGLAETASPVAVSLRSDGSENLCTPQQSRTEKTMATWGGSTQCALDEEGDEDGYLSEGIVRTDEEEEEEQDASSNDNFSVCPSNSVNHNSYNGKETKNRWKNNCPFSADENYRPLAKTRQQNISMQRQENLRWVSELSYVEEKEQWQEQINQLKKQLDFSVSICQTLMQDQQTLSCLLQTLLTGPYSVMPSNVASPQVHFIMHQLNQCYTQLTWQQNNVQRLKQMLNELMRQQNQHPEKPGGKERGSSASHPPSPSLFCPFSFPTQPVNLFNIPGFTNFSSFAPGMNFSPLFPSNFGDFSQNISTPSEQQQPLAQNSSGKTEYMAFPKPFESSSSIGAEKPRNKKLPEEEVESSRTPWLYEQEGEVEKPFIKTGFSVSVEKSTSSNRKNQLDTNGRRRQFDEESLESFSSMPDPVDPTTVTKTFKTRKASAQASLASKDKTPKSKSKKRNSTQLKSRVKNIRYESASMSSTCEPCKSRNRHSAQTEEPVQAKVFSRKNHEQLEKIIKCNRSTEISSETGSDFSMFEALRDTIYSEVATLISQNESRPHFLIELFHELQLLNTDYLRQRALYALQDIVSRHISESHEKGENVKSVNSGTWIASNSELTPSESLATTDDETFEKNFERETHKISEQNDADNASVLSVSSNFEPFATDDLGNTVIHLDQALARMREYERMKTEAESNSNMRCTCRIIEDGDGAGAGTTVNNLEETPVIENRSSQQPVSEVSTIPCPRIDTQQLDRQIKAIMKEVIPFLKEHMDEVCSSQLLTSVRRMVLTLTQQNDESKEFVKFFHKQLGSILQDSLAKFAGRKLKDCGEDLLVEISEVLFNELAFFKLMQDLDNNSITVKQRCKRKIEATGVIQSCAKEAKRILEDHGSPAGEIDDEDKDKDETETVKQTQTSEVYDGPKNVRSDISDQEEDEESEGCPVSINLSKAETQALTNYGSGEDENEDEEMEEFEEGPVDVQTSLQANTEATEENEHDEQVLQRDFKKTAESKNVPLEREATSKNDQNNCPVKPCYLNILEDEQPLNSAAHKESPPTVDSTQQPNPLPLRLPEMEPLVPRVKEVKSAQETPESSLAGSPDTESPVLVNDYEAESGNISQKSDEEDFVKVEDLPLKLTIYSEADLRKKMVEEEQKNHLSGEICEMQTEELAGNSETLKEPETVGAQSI
With MDEDGLPLMGSGIDLTKVPAIQQKRTVAFLNQFVVHTVQFLNRLSTVCEEKLADLSLRIQQIETTLNILDAKLSSIPGLDDVTVEVSPLNVTSVTNGAHPEATSEQPQQNSTQDSGLQESEVSAENILTVAKDPRYARYLKMVQVGVPVMAIRNKMISEGLDPDLLERPDAPVPDGESEKTVEESSDSESSFSD [F44L] the “effect of a mutation on the interaction” value was “with no effect”.

Variants of: B1
Settings: with mcrs1_human MCRS1, Q96EZ8
mcrs1_human MCRS1, Q96EZ8, sequence (Q96EZ8 whole entry): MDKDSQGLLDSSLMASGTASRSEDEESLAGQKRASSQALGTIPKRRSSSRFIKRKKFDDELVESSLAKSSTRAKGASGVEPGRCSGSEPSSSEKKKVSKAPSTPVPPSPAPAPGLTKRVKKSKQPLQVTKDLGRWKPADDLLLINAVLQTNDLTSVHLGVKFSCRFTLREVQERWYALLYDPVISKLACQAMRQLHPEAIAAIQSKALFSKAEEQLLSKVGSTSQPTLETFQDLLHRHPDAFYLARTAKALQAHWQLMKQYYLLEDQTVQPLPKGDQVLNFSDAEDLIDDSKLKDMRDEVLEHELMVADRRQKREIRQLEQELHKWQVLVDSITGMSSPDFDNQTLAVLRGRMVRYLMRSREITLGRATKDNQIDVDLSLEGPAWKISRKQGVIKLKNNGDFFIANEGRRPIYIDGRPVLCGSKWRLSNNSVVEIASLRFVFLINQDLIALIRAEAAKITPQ
With MDEDGLPLMGSGIDLTKVPAIQQKRTVAFLNQFVVHTVQFLNRLSTVCEEKLADLSLRIQQIETTLNILDAKLSSIPGLDDVTVEVSPLNVTSVTNGAHPEATSEQPQQNSTQDSGLQESEVSAENILTVAKDPRYARYLKMVQVGVPVMAIRNKMISEGLDPDLLERPDAPVPDGESEKTVEESSDSESSFSD [F44L] the “effect of a mutation on the interaction” value was “with no effect”.

Variants of: B1
Settings: with txlna_human TXLNA
MDEDGLPLMGSGIDLTKVPAIQQKRTVAFLNQFVVHTVQFLNRLSTVCEEKLADLSLRIQQIETTLNILDAKLSSIPGLDDVTVEVSPLNVTSVTNGAHPEATSEQPQQNSTQDSGLQESEVSAENILTVAKDPRYARYLKMVQVGVPVMAIRNKMISEGLDPDLLERPDAPVPDGESEKTVEESSDSESSFSD [F44L] was tested, and the “effect of a mutation on the interaction” value was “with no effect”.

Variants of: B2
Settings: with krt38_human KRT38, O76015
With MASTSTTIRSHSSSRRGFSANSARLPGVSRSGFSSVSVSRSRGSGGLGGACGGAGFGSRSLYGLGGSKRISIGGGSCAISGGYGSRAGGSYGFGGAGSGFGFGGGAGIGFGLGGGAGLAGGFGGPGFPVCPPGGIQEVTVNQSLLTPLNLQIDSTIQRVRAEEREQIKTLNNKFASFIDKVRFLEQQNKVLETKWTLLQEQGTKTVRQNLEPLFEQYINNLRRQLDSIVGERGRLDSELRGMQDLVEDFKNKYEDEINKRTAAENEFVTLKKDVDAAYMNKVELQAKADTLTDEINFLRALYDAELSQMQTHISDTSVVLSMDNNRNLDLDSIIAEVKAQYEEIAQRSRAEAESWYQTKYEELQVTAGRHGDDLRNTKQEIAEINRMIQRLRSEIDHVKKQCANLQAAIADAEQRGEMALKDAKNKLEGLEDALQKAKQDLARLLKEYQELMNVKLALDVEIATYRKLLEGEECRLNGEGVGQVNISVVQSTVSSGYGGASGVGSGLGLGGGSSYSYGSGLGVGGGFSSSSGRAIGGGLSSVGGGSSTIKYTTTSSSSRKSYKH [P154S] the “effect of a mutation on the interaction” value was “with no effect”.
